# Laboratory results taken from a protein production outcome set (Wang et al. 2014).
# Assay: label from the status in PepcDB records
sequence,measurement,value
MDTSRLRPTSPLVRQAAACLDAGEADHADVLLDLHLSRHPEDSAGLILFGLTRVALGRPLEAEQPLRRALALDPIDDPFHARAVCALVDVLKAQGRMAEVSEVLERAGDVAPMNAVFPRMLGAHYRALGQVGAAITAARRAVAVESADGENWRGLAATLLGGAPGEALEALERAKTCGDDGADWWNIRGVALAALGEGEAAREAFKNAILRDGAAPMAWTNLGNLEIRAARSADALERAVEAYGQAIRRAPDSFEAHNNLAQALRDLGRRDEALVHAERAASLRPHDVTVLNTQANILRGLRRVDEAVAILERALACDGRSAETHSNLGLALLAAQDRQRAEEHFRKAAALAPDCVDIIVNLACFLIHINAGKEVLGVLEPALARFPGDVGLLATLGLHYFQENAYEDCATVFETVLAKKPDHVEARASLGVVRWSQGRLVESLALAQSIREDFPEDIRTLFLLGCVHSDLMENASALEVFDLAVEKGGERVPPFHYSNCCFSFHYVEAMEKDDLFARHRRWDALYGAGATELSDVTHHNTRDPERRLRIGYVSPDFRRHSVAYFFLPLVGAHDRAAVEVTCYSLSTLTDQMTDLIREGCDRWRDITTLPAEKAAERVREDEIDILVDLSGHTANNGLSIFALKPAPVQVTYLGYPNTTGLSAIDYRLTDGFADPLGVDEDPASETLWRLPRSFLLFDEVPGLPDPAPPPVLSRGTITFGSFNNMAKVNRGCVAVWKRILDAVPGSRLLLKAKGFRDPATAKVLIERLIDWGVDPEQVSYAPYAKNLMEHVAVYAEVDIALDTFPYNGTTTTFEALHMGVPVIGLRGHRHSGRVGASILGNLGLADRLLGEDVDDMVAKAVALAGDLEGLMRMRAGLRERLRASPLQDGPGFVADLEGAYRAMWRRWCAGPPTFHRQPKNGMWAVEEMEDAIEPVLG,protein production,failed
MTADRPLLGIFLMLGFCVLAPMGDALAKLLGGTMPTMQLLLVRFAIQAVILIPLVQATGRPWQLRGRLLRLTALRTLLHIVGIWAMFTALRYLPLADAIAIAFVMPFIMLLLGKYVLGEEVGPRRLGACIVGFAGTLLVIQPSFAEVGLPALLPLLVAVVFALFMLVTRQLAKDTDPIALQAVSGVMACVALTPVLLIGHAAGVEALTLVTASGTTLWLLLAIGVLGTAAHLLMTWSLRYAPSATLAPMQYLEIPVATAIGWLIFHDLPNGLAALGILITMAAGLYVILREQATARSAATETSG,protein production,failed
EGWMDEPDWRRFITAYHQEHAGITEQLFSLADTSPYAWLAEPLRAVEGTVLDLACGSAPTRQELPDADWVGVDLSAAELAEAARQGRGPLLRAAADALPAASASVGAVCAAMCLPVVTPLPQTLGEIRRVLRPGGVLAALVPSQSGLSPSGMLGWVRVMAALRAVRQPWPNPQARDGLPALLRTAGFRVRRDERHVFTLAIDSAGAAALLADALYLPGLTTHRAQAAKR,protein production,failed
MEIGVSGASGQLGKAVLAELAARGAGHRVVGISRTPERVPAPAQGRLGDYDRAETLLQAYRGLDRLLLIPSADLGPGVRGRQFTAAIDAAVRAGVKHIVMVSTAGTRELAEPALGAAYWVGEQRLVKTAPRWTILRMNYYAESFAQQAPMFLGSGILPGLGENRVAFVSRDDVAAAAAGILLGEGHAGAIYNATGPVALSGAQRAALVAELSGKPLRFAVSDEAPLRQGLAQAGLPGGFVDAVIDLEKSFVAGAFDVVTGDVARLAGREPRALRTLLADSLRPAVADA,protein production,failed
SKIYDNKNQLIADLGSERRVNAQANDIPTDLVKAIVSIEDHRFFDHRGIDTIRILGAFLRNLQSNSLQGGSTLTQQLIKLTYFSTSTSDQTISRKAQEAWLAIQLEQKATKQEILTYYINKVYMSNGNYGMQTAAQNYYGKDLNNLSLPQLALLAGMPQAPNQYDPYSHP,protein production,failed
MRFVLRILKALALLLVLLVITAAGWLFIRPPELLRVGDGYAAKIVCSNVFIAGREAEDVLHDDVQAPGNPLLRLLRVSVDRDNDRVTARFMGLFAPSYALYRGAFGCTSVPDGNFEAAAKAAPFDPPAKMQANDALWPEGEGTGNPADGKIAALLSDAGVAGPAMRAIVVVRNGRIVTEAYGPGFSAKTPLIGWSMTKTVNATILGRLMLGGKISFDDDNLLAQWKNDARAKIKVSDLLGMESGLAFNENYGDVADVTRMLYLDPDMVSLPAGAPMEAAPGQRFRYSSGTAVLLSRIWMDRVGNAQAAFSYPHDALFAPLGMTSAVFELDARGTFAGSSYLYATAHDWARFGQFLLQDGVWNGQRLLPEGFVGAMRTPTAASNGRYSQGQAWLSPGRGSSAGAGLPEDTFWLTGHDGQSVAIVPSANLVVVRLGLTPSRLGYQPQTLLKAILAALPQSGAQQQAGSQRQAQPQP,protein production,failed
IKAVFDPDNRLNPGKICPPEGIDAPMMKVDAAKRGTWDRQIPIAVRSSWRGAMECNGNGLCFNFDVKSPMCPSMKVSNQRIHSPKGRATLVREWLRLLADRGVDPNQLEKALPEQGVSLRSLVARTRNSWHARKGEYDFSHEVKEAMSGCLACKACSTQCPIKIDVPEFRSRFLQLYHSRYLRPVRD,protein production,failed
MNPFKNFETRQVLEETCEVHGCQLWLTKVPIKGRLEELKQCPECTKAAINIFENKLNSQSKINSKLADTYAVFERDSLVSDKLRAKSLENYEIKDEIDQHAINYAKRMEQFYRQDRTGNAIITGPSGVGKSHLTYGLAKFMNEQFKAYESPKSVLFISLVSLFTKIKESFKVDNGYRQADMIELLTRVDYLFLDDLGKESRKGDSQNNEWTHQILYEILDNRSNTIINTNLSSKEIKALYADNYGNGALSSRILEGVTGNSFAYPKDMEDRRY,protein production,failed
MDNPKGIDGFTNLKEKDIATNENKLLRTITADKMIPAFLITPISSQIAGKVIAQVESDIFAHMGKAVLIPKGSKVIGYYSNNNKMGEYRLDIVWSRIITPHGINIMLTNAKGADIKGYNGLVGELIERNFQRYGVPLLLSTLTNGLLIGITSALNNRGNKEGATNFFGDYLLMQLMRQSGMGINQVVNQILRDKSKIAPIVVIREGSRVFISPNTDIFFPIPRENEVIAEFLK,protein production,failed
MTQRDTGRLDAIVLAAGRGVRFGGGKLTALLDGDPLVAAALLTAFLAPARRVVVAVGPEPDVRQAVEATATRLLARERLVLVPIDDPSAGMGASLAAAARSLPGDTDGVFVFLGDMPRIDPATPRHLAAALRDPGDIVAPTYLGRRGHPVLFGARWAPVLGALSGDEGARAIVDKAGESLVLVPVDDPGVHLDVDRPSDLARVQTDRRTLLEHHHHHH,protein production,not failed
MWKRGKISTQLDDDEFRAGMRKAQVIDVREKKEFDAGHILGARNIPYSQMKNRTQELRSDLPVYLYDQGRTFSGRAAMLLSKKGFTQLYILKNGYQRWTGKTKKTKYLEHHHHHH,protein production,not failed
MGGFRFHQYQVVGRALPTENDEHPKIYRMKLWGRNEVCAKSKFWYFMRKLKKVKKSNGQMLAINEIFEKNPTTIKNYGIWLRYQSRTGYHNMYKEYRDTTLNGGVEQMYTEMASRHRVRFPCIQIIKTATVPAKLCKREITKQFHNSKIKFPLVFRKVRPPSRKLKTTYKASKPNLFM,protein production,failed
MCSALVVAAPHSGSGKTTVTAAIARYHRVQGRKVTVFKVGPDFIDPMILRQASGELVYQLDLWLVGEQGCRALLHRAAMDSDLILIEGVMGLFDGTPSSADLAKYFNIPVLGVIDAKAMAQTFAAVTFGLAKFCEDLPFSGVIANRVNTERHAELLSVSLPKAFRFYGRIPKDDTITLPERHLGLVQAQELSDIDVQLDKAASHIANTGLTELPSQVEFFAQEDDNQENIIEGALAGTRIIIIRDSAFSFIYAANIAFLTQTGAELIYCSAMADVHLPDGDILYIPGGYPELYAEQLMNNVTFLSDIRAFSASNKPIVAECGGMLYLLEQLTDMEGQQFSMLGLMPGKATMQKKLAAIGSQWVPLPSFADAAEDSADNIMRGHSFHYSCAEIELEPSSQTTHHPSERAGEYVYQHNNILASYMHWYFPSNPSLTLRIFDKARYLLEHHHHHH,protein production,not failed
MPSQLGITLKQVRLQQHLSQATVATGICAQSMLSAIENGKYTPNATLLMRLCQRLKISLDQLSLAENFTISDLEQINDRLAKLCNHHRYADLREFLLTDAVQARLTTDVQLAAYYYYLGITDFQLGHLTDAQQQFQLALASAPAQHRTTLSRLCWMSLALIHASRQQANASEEAMTQAVTQLKTAPYEANLNSLFYLAAVSHLKLNQLTIAAQWLERGIDFATDHDSHYMLANDYHLLAVIASRSEQIDQQRTAQATEHVLTTLFHESIYDRLD,protein production,failed
MTDPSSTLRLRGLLAEIVAAPLTRTVALLALCSAYIQGPLTKIFDFPGAIAEMNHFGLQPAAAFAVFVIIFELTASAMVVTGVLRWVGALALSGFTLLATFIALRFWEMAPGMDRMMATNAFFEHLGLAGAFVIVAAIDLTKGTGK,protein production,not failed
MVEQRNRGRPAVPDAVVRESIVGAAQRLLSSGGAAAMTMEGVASEAGIAKKTLYRFASGRADLIGLLVESWIAPIFPGFEADPQDAAAALERIVYDIAQAVLSREAVSLFRMLASDADLRNRFLPAYNANGIERSRRELARWLDQQASAGRLPLPIPAERVADLLLSAVIAEPLRQITLGLREPLPAWDIAPRVADAVRLIAPGRER,protein production,not failed
MLAVSFIAGVILIGLYGVDSSERYIAVSELLANPQDYSGQNINAMGVVEDRSLHKDPGVTSFDLKDENDENLKIHVNYVGNLPSNLAEGKQVTIRGSMISESTFEANKIVTGCPSKYTELEHHHHHH,protein production,failed
PLLDSFKVDHTKMNAPAVRIAKTMLTPKGDNITVFDLRFCIPNKEILSPKGIHTLEHLFAGFMRDHLNGDSIEIIDISPMGCRTGFYMSLIGTPNEQKVSEAWLASMQDVLGVQDQASIPELNIYQCGSYTEHSLEDAHEIAKNVIARGIGVNKNEDLSLDNSLLK,protein production,not failed
MRNNLSAYSNIETGEAATELECFPYSVQHNDEGVCLLVRMGPHRILLDCGLADISSIQKSLTPSVKRGNPPSPADLVLVTHAHPDHARGLLALHQAFPNLPIYGSEVTSKLLPLNWLDHNPQEIPQLCHALPLRSPVELQDGLVAEIFPCGHLPGAVAILLTYTTEQRSYKLLYTGDFFLSNSRLVEGLRLEELRGIDLNVLIIEGTYGTSRHPHRRNQENQLAERINRAISDRYSVVLPTPALGLGQELLMLLRSHHHFTGRDLDIWVDGAVAIGCDAYLELLPHLPASVQNFARHQPLFWDERVRPRVRRLQAENRSIVGKSPCIVLTDSTSDLEQYCQPETGPWLILLPEKIDIKVNKKYSAPTTVESYLLAQHSDGPGTTQLIHNLRPQHVVFVHGSPAYLADLTCLEELQNRYHIHSPAAETMVELLIGETFLQPAPPETNYEGELTELGTVITISIPEAITADPRWRQFADTGLIEARWQGEELVLRGLTQRELLNQNSDRNIPPEIDCCGTCRHQRGQRCWNPSSPLYNFRVTLEGHCPAFERLSNGE,protein production,failed
MPQTPPFPVMYGSTNGYNKNLYKAKEEDYEGLYYHDNNLISGSLEALIEHLVPTVAYYPDRTYIFTFLLSSRLFLHPYELMSKVCHLCVDQQRLSDPQADKARVRKIAPKILQLLTEWTETFPYDFRDERMMKSLKELTHRLSTGEDLYRKAVQQMTQTLIRKLTTLSQYEEALAKINSSVTDRLTVLKTKPQSIQRDILTICNDPFTLAQQLTHIELERLSYIGPEEFVQAFVQKDPLDNDKNCFSDHKKASNLEAYVEWFNRLSYLVATEICMPVKKKHRARVIEFFIDVARECFNIGNFNSLMAIITGMNMSPVSRLKKTWAKVKTAKFDILEHQMDPSSNFYNYRTALRGATQRSITAHSSREKIVIPFFSLLIKDIYFLNEGCANRLPNGHVNFEKFWGLAKQVTEFMTWKKVECPFDRDRKILQYLLTAPVFSEDALYLASYESEGPENNMEKDRWKSLRSSLLNRT,protein production,not failed
MPISAHYGLTVLIWGLTWTAIRLQVESASVDLAVFYRFVMASVVALAVLAVTRRLSRLTLGQHGWLFLQGLTLYSVNFLLIYRAAESMTSGLLAVVFSLAALFNAFNGWLWLRTRPTARLYPAVALGVTGVALLFWHDLQLGNATGASILFAVAGTFWFSMGNLVSVKVKAAGVPLFTANAWAMVYGALILGLWCLIQGVEWMLPATSVFWGATVFLAVPGSIVAFYCYITVIQVLGADKAGYAAVLFPVVALSVSTWLEGFEWTTPAMLGALLAILGNYVLFRPGKRQSVSATSVPEQRT,protein production,failed
